Test results from paper PMC2811425.

Key:
[1] = tested on: C[C@H](O)C(=O)O; experiment: cells, lysate or membranes
[2] = tested on: CC(=O)C(=O)O; experiment: cells, lysate or membranes

MCT1 (Rattus norvegicus)
Km [1]: 5.7 ± 1.2 mM | Km [2]: 1.2 ± 0.2 mM
